Results published in US20230235054A1 (BIOATLA, published 2023).

T1: huNectin4-His (human, UniProt Q96NY8 32-349)
T1 construct: Immobilized on the SPR chip; also called humanNectin4; human Nectin4; not shown: His tag
T1 sequence (looked up): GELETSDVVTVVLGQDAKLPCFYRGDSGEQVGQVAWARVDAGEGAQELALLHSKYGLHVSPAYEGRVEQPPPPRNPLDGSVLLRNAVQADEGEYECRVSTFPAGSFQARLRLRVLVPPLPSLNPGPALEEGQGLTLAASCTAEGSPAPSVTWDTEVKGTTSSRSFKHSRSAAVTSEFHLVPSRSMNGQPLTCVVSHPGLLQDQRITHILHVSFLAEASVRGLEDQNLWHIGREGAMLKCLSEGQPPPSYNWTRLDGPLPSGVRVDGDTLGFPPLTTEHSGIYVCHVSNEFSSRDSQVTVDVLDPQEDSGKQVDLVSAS

T2: cynoNectin4-mFc (cyno, UniProt A0A2K5WES1 32-349)
T2 construct: Immobilized on the SPR chip; also called cyanoNectin4; not shown: mFc (mouse Fc)
T2 sequence: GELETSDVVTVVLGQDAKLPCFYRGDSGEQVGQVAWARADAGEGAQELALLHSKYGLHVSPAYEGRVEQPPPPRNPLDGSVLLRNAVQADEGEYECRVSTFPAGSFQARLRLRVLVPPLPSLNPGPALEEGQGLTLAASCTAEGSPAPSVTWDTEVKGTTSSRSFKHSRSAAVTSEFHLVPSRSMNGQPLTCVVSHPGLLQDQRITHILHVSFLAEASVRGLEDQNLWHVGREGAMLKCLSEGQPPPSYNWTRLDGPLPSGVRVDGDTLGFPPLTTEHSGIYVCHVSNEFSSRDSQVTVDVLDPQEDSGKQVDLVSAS

T3: recombinant human Nectin4 antigen (human, UniProt Q96NY8 32-349)
T3 construct: construct not described
T3 sequence (looked up): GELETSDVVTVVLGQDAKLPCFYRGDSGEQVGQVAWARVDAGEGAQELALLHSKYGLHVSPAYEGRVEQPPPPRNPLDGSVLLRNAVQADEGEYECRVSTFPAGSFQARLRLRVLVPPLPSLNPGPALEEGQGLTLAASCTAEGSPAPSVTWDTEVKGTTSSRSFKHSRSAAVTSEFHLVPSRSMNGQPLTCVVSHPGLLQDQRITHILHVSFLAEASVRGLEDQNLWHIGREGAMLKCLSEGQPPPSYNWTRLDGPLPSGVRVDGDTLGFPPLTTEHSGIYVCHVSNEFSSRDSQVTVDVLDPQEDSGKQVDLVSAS


Legend:
huNectin4-His [1] = biological target: T1, huNectin4-His; assay: SPR, huNectin4-His immobilized, pH 6.0
Protocol: (§1) Binding kinetics of anti-Nectin4 antibodies were measured by surface plasmon resonance using a SPR2/4 instrument (Sierra Sensors, Hamburg, Germany) and flat amine sensor chips. The SPR sensor contained four flow cells (FC1-FC4), each of which was addressed individually or in groups. huNectin4-His was immobilized in FC2, and cynoNectin4-mFc in FC4. No protein was immobilized in FC1 and FC3 which were used as control surfaces for FC2 and FC4, respectively.
(§2) All injections were done at a flow rate of 25 μL/min at 25° C. The sensor surface was activated with 1-ethyl-3-(3-dimethylaminopropyl)-carbodiimide (EDC) and N-hydroxysuccinimide (NHS) (200 mM/50 mM) for 480 seconds. HuNectin4-His (2 μg/mL in 10 mM NaAc, pH4.5) was injected for 480s and the surface was inactivated by injecting 1M ethanolamine-HCl for 480s. CynoNectin4 was immobilized using the same conditions as described for huNectin4-His, except that the cynoNectin4 was diluted into 10 mM NaAc buffer having pH 5.0. The control surface was activated and deactivated using the same conditions, but without injecting protein. PBST buffer (PBS pH 7.4 with 0.05% TWEEN20™) was used as running buffer for the surface preparation. The running solution was switched to PBST with 30 mM sodium bicarbonate with the pH adjusted as indicated in the figures before the analyte injections. The instrument was equilibrated with the running solution for one hour before the first analyte injection.
(§3) The off-rate was measured for 360s. The chip surface was regenerated after each cycle of interaction analysis by injecting 6 μL of 10 mM glycine (pH 2.0). Flow cells 1 and 3 without immobilized protein were used as control surfaces for reference subtraction.

cynoNectin4-mFc = biological target: T2, cynoNectin4-mFc; assay: SPR, cynoNectin4-mFc immobilized, pH 6.5
Protocol: as §1, §2, §3

huNectin4-His [2] = biological target: T1, huNectin4-His; assay: SPR, huNectin4-His immobilized, pH 7.4
Protocol: as §1, §2, §3

[3] = biological target: T3, recombinant human Nectin4 antigen; assay: pH range ELISA, 30 ng/mL, pH of 50% binding activity
Protocol: 1) Coat ELISA plates with 100 μL of 1 μg/mL recombinant human Nectin4 antigen in carbonate-bicarbonate coating buffer [0462] 2) Cover plates with sealing film and incubate overnight at 4° C. […] 3) Decant plates and tap out residual liquid on a stack of paper towels [0464] 4) Wash wells twice by dispensing 200 μL of various pH incubation buffer to the wells and completely aspirate the contents [0465] 5) Add 200 μL of various pH incubation buffers (pH5.5, 6.0, 6.2, 6.5, 6.7, 7.0 and 7.4) to the wells. Cover with sealing film and place the plate onto a plate shaker (set to 200 rpm) for 60 minutes at room temperature [0466] 6) Decant plates and tap out residual liquid on a stack of paper towels [0467] 7) Serially dilute test substances in various pH incubation buffers (pH5.5, 6.0, 6.2, 6.5, 6.7, 7.0 and 7.4) to 30 ng/mL [0468] 8) Add 100 μL/well of diluted test substances to the plates [0469] 9) Cover with sealing film and place the plates onto a plate shaker (set to 200 rpm) for 60 minutes at room temperature. [0470] 10) Decant plates and tap out residual liquid on a stack of paper towels. […] 12) Dilute the HRP secondary antibody at 1:2500 in various pH incubation buffers (pH5.5, 6.0, 6.2, 6.5, 6.7, 7.0 and 7.4) [0473] 13) Add 100 μL HRP secondary antibody diluted in various pH incubation buffers (pH5.5, 6.0, 6.2, 6.5, 6.7, 7.0 and 7.4) to each well. […] 14) Cover with sealing film and place the plates onto a plate shaker (set to 200 rpm) for 60 minutes at room temperature. [0475] 15) Decant plates and tap out residual liquid on a stack of paper towels. […] 16) Wash wells three times by dispensing 200 μL of various pH wash buffer (pH5.5, 6.0, 6.2, 6.5, 6.7, 7.0 and 7.4) to the wells and completely aspirating the contents [0477] 17) Dispense 50 μL per well of the TMB substrate solution into all wells of plates.

Row | Kd (huNectin4-His [1]) [nM] | Kd (cynoNectin4-mFc) [nM] | Kd (huNectin4-His [2]) [nM] | koff (huNectin4-His [1]) [s⁻¹] | kon (huNectin4-His [1]) [M⁻¹ s⁻¹] | pH inflection point [3] [pH] | koff (cynoNectin4-mFc) [s⁻¹] | kon (cynoNectin4-mFc) [M⁻¹ s⁻¹] | koff (huNectin4-His [2]) [s⁻¹] | kon (huNectin4-His [2]) [M⁻¹ s⁻¹] | Binder
1 | 1.49 | 0.52 | 0.943 |  |  |  |  |  |  |  | BAP-143-wildtype (antibody, V domains shown, 150 kDa used in SPR; also called BAP143-00-00; benchmark (BM)) VH: EVQLVESGGGLVQPGGSLRLSCAASGFTFSSYNMNWVRQAPGKGLEWVSYISSSSSTIYYADSVKGRFTISRDNAKNSLSLQMNSLRDEDTAVYYCARAYYYGMDVWGQGTTVTVSS VL: DIQMTQSPSSVSASVGDRVTITCRASQGISGWLAWYQQKPGKAPKFLIYAASTLQSGVPSRFSGSGSGTDFTLTISSLQPEDFATYYCQQANSFPPTFGGGTKVEIK
2 | 1.61 | 0.398 | 0.406 | 0.00114 | 707000 | 6.77 | 0.000769 | 1.93e+06 | 0.00143 | 3.52e+06 | BAP-143-00-06 (antibody, V domains shown, Used as a conjugate with a linker payload (CAB ADC)) VH: EVQLVESGGGLVQPGGSLRLSCAASGFTFSSYNMNWVRQAPGKGLEWVSYISSSSSTIYYADSVKGRFTISRDNAKNSLSLQMNSLRDEDTAVYYCARAYYYGDDVWGQGTTVTVSS VL: DIQMTQSPSSVSASVGDRVTITCRASQGISGWLAWYQQKPGKAPKFLIYAASTLQSGVPSRFSGSGSGTDFTLTISSLQPEDFATYYCQQANSFPPTFGGGTKVEIK
3 | 6.02 | 1.86 | 2.45 | 0.00122 | 203000 | 6.71 | 0.00124 | 668000 | 0.0032 | 1.31e+06 | BAP-143-00-03 (antibody, V domains shown, Used as a conjugate with a linker payload (CAB ADC)) VH: EVQLVESGGGLVQPGGSLRLSCAASGFTFSSYNMNWVRQAPGKGLEWVSYISSSSSTIYYADSVKGRFTISRDNAKNSLSLQMNSLRDEDTAVYYCARAYYYGMDVWGQGTTVTVSS VL: DIQMTQSPSSVSASVGDRVTITCRASQGISGWLAWYQQKPGKAPKFLIYAASTLQSGVPSRFSGSGSGTDFTLTISSLQPEDFATYYCQQANSFPDTFGGGTKVEIK
4 | 2.58 | 1.12 | 1.42 | 0.00155 | 602000 | 6.81 | 0.0018 | 1.6e+06 | 0.00525 | 3.71e+06 | BAP-143-00-04 (antibody, V domains shown, Used as a conjugate with a linker payload (CAB ADC)) VH: EVQLVESGGGLVQPGGSLRLSCAASGFTFSSYNDNWVRQAPGKGLEWVSYISSSSSTIYYADSVKGRFTISRDNAKNSLSLQMNSLRDEDTAVYYCARAYYYGMDVWGQGTTVTVSS VL: DIQMTQSPSSVSASVGDRVTITCRASQGISGWLAWYQQKPGKAPKFLIYAASTLQSGVPSRFSGSGSGTDFTLTISSLQPEDFATYYCQQANSFPPTFGGGTKVEIK
5 |  | 4.71 |  |  |  | 6.7 | 0.00179 | 380000 |  |  | BAP-143-00-02 (antibody, V domains shown, Used as a conjugate with a linker payload (CAB ADC)) VH: EVQLVESGGGLVQPGGSLRLSCAASGFTFSSYNMNWVRQAPGKGLEWVSYISSSSSTIYYADSVKGRFTISRDNAKNSLSLQMNSLRDEDTAVYYCARAYYYGMDVWGQGTTVTVSS VL: DIQMTQSPSSVSASVGDRVTITCRASQGISGWLAWYQQKPGKAPKFLIYAASTLQSGVPSRFSGSGSGTDFTLTISSLQPEDFATYYCQQANSEPPTFGGGTKVEIK
6 | 6.37 | 3.96 | 5.09 | 0.00242 | 380000 | 6.99 | 0.00237 | 599000 | 0.0062 | 1.22e+06 | BAP-143-00-05 (antibody, V domains shown, Used as a conjugate with a linker payload (CAB ADC)) VH: EVQLVESGGGLVQPGGSLRLSCAASGFTFSSYNMNWVRQAPGKGLEWVSYISSSSSTIYYADSVKGRFTISRDNAKNSLSLQMNSLRDEDTAVYYCAEAYYYGMDVWGQGTTVTVSS VL: DIQMTQSPSSVSASVGDRVTITCRASQGISGWLAWYQQKPGKAPKFLIYAASTLQSGVPSRFSGSGSGTDFTLTISSLQPEDFATYYCQQANSFPPTFGGGTKVEIK
7 | 12.3 | 2.94 | 3.89 | 0.00367 | 298000 | 6.59 | 0.00134 | 457000 | 0.00267 | 686000 | BAP-143-00-01 (antibody, V domains shown, Used as a conjugate with a linker payload (CAB ADC)) VH: EVQLVESGGGLVQPGGSLRLSCAASGFTFSSYNMNWVRQAPGKGLEWVSYISSSSSTIYYADSVKGRFTISRDNAKNSLSLQMNSLRDEDTAVYYCARAYYYGMDVWGQGTTVTVSS VL: DIQMTQSPSSVSASVGDRVTITCRASQGISGWEAWYQQKPGKAPKFLIYAASTLQSGVPSRFSGSGSGTDFTLTISSLQPEDFATYYCQQANSFPPTFGGGTKVEIK
